Legend:
[1] = molecular target: T1, wild-type human C-RAF (human, UniProt P04049 1-648); test: C-RAF immunoprecipitation, 14-3-3ζ immunoblot, A375 cells with and without 2 µM vemurafenib (FIG. 7B)
T1 construct: In the homodimerization assays the copies carried a His/V5 tag or a Flag tag; also called WT-C-RAF; C-RAF (WT)

[2] = molecular target: T2, C-RAF G361A resistance mutant (human, UniProt P04049 1-648); test: C-RAF immunoprecipitation, 14-3-3ζ immunoblot, 293T and A375 cells, no RAF inhibitor (FIG. 7A, 7B)
T2 construct: His/V5- or Flag-tagged in the homodimerization assays; also called 361G>A

[3] = molecular target: T3, C-RAF S257P resistance mutant (human, UniProt P04049 1-648); test: as above
T3 construct: His/V5- or Flag-tagged in the homodimerization assays

[4] = molecular target: T4, C-RAF P261T resistance mutant (human, UniProt P04049 1-648); test: as above
T4 construct: His/V5- or Flag-tagged in the homodimerization assays

binding result [1]: binds
binding result [2]: binds
binding result [3]: binds
binding result [4]: binds
B1: 14-3-3 ζ (other, UniProt P63104 1-245, looked up)
chain: MDKNELVQKAKLAEQAERYDDMAACMKSVTEQGAELSNEERNLLSVAYKNVVGARRSSWRVVSSIEQKTEGAEKKQQMAREYREKIETELRDICNDVLSLLEKFLIPNASQAESKVFYLKMKGDYYRYLAEVAAGDDKKGIVDQSQQAYQEAFEISKKEMQPTHPIRLGLALNFSVFYYEILNSPEKACSLAKTAFDEAIAELDTLSEESYKDSTLIMQLLRDNLTLWTSDTQGDEAEAGEGGEN
notes: The Western blot methods list a 14-3-3ζ antibody (Cell Signaling)
